Measured values taken from patent US20110262445A1 (CEPHALON AUSTRALIA, published 2011).
Read-outs that look alike come from different tables or passages of the source.

T1: human IL-12 (human, UniProt P29460 23-328; P29459 23-219)
T1 construct: Recombinant (Peprotech); FLAG-tagged IL-12 in the flow cytometry assays, biotinylated in the IL-12Rβ2 assay; also called hIL-12
T1 sequence 1: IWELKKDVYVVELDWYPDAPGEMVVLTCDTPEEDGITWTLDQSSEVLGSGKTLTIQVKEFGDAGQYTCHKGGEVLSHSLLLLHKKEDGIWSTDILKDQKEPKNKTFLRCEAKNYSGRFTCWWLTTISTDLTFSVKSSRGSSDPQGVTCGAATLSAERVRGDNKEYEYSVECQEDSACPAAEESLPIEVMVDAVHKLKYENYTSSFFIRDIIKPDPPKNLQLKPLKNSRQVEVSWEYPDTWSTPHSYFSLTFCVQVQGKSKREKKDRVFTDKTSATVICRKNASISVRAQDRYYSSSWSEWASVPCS
T1 sequence 2: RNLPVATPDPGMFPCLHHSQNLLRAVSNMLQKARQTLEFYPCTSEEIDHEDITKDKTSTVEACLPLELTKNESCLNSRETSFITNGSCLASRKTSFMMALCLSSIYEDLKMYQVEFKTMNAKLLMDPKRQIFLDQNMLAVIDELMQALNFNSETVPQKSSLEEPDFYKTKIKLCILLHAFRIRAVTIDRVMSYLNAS

T2: human IL-23 (human, UniProt P29460 23-328; Q9NPF7 20-189)
T2 construct: Recombinant (Ebioscience); HIS-tagged in flow cytometry, biotinylated in some assays; also called hIL-23; rhIL-23
T2 sequence 1: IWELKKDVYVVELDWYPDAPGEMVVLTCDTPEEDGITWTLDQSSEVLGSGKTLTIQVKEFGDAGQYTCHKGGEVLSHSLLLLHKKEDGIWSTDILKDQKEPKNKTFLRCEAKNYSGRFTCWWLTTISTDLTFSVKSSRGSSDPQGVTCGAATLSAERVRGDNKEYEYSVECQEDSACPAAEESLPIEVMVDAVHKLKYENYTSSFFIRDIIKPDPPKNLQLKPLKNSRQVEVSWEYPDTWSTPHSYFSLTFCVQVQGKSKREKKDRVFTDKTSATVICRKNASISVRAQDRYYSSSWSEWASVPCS
T2 sequence 2: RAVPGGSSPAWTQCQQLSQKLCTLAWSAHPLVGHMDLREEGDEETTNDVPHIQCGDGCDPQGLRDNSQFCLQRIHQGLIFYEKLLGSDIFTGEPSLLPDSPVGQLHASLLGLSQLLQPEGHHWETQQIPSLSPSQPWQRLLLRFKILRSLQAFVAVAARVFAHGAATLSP


Experiments:
[1] = biological target: T1, human IL-12; test: ELISA, coated IL-12
How it was run: (§1)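 Binding values are absorbance readings. After cytokine (1 μg/mL, carbonate buffer pH 9.6) was coated onto Maxisorp plates overnight at 4° C and the plates were blocked with 1% BSA in PBS, antibody titrations were bound for 1 hour at 25° C and detected with HRP-linked goat anti-human IgG or anti-murine immunoglobulin (1:2000). Color from TMB, stopped with 1M HCl, was read at 450 nm with 620 nm as reference.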

[2] = biological target: T2, human IL-23; test: ELISA, coated IL-23
How it was run: as §1

[3] = biological target: T2, human IL-23; test: ELISA, coated IL-23; remark: listed apart in the source
How it was run: as §1

[4] = biological target: T1, human IL-12; test: ELISA, coated IL-12; remark: listed apart in the source
How it was run: as §1

[5] = biological target: T2, human IL-23; test: SPR, IgG
Method: (§2) CU-A6 was converted to Antibody 183, CP-A6 was converted to Antibody 184 and AW-F2 was converted to Antibody 207 by addition of a human heavy chain Fc region (SEQ ID NO: 8) and a constant kappa light chain region (SEQ ID NO: 9). IgG molecules were expressed by co-transfecting the heavy and light chain construct for each antibody into HEK 293E cultures. The expressed IgGs were purified by affinity chromatography and gel exclusion and the resulting monomeric molecules were tested for IL-12 and IL-23 binding by SPR (TABLE 6). All three IgG variants retained binding activity against both analytes with a visible improvement in kd compared to the parental wild-type IgG. Based on this, it is reasonable to expect that scFv variants described in TABLE 4 could be converted to the IgG format and retain improved binding characteristics against IL-12 and IL-23.
(§3) Using a SPR 3000, Protein A was immobilized onto FC1 and FC2 (or alternatively FC3 and FC4) of a CM5 research grade sensor chip using amine coupling, giving approximately […] RU. FC1 was used a blank throughout the experiments. The experiments were run in HBS-P buffer (SPR). At a flow rate of 20 μl/min, 20 μl of 5 μg/mL of antibody was passed over FC2. IL-12, IL-23 or IL-12p40 (Peprotech) were passed over the surface of FC1 and FC2 at concentrations ranging from 66 nM to 2 nM. Regeneration of the surface was performed using 10 mM Glycine, pH 1.0. The sensorgram data from FC2 was subtracted from FC1 and a buffer only control. The curves were fitted using a 1:1 Langmuir equation to generate the kd, ka and KD values. All curves were fitted with a χ² of less then 2.0 where possible.

[6] = biological target: T1, human IL-12; test: SPR, IgG
Method: as §2, §3

| Binder | binding result [1] | binding result [2] | binding result [3] | binding result [4] | other results |
| --- | --- | --- | --- | --- | --- |
| Antibody 77 (antibody, human IgG1, kappa, V domains shown) VH: QVQLVQSGAEVKKPGASVKVSCKASGYTFTDYYLHWVRQAPGQGLEWMGWIDPENGDTEYAPKFQGRVTMTTDTSTSTAYMELRSLRSDDTAVYYCNANKELRYFDVWGQGTMVTVSS VL: EIVLTQSPATLSLSPGERATLSCRASQSISINLHWYQQKPGQAPRLLIYFASQSISGIPARFSGSGSGTDFTLTISSLEPEDFAVYYCQQSNSFPLTFGGGTKVEIKR | binds | binds | – | – | – |
| Antibody 79 (antibody, human IgG1, kappa, V domains shown) VH: EVQLVQSGAEVKKPGATVKISCKVSGYTFTDYYLHWVQQAPGKGLEWMGWIDPENGDTEYAPKFQGRVTITADTSTDTAYMELSSLRSEDTAVYYCNANKELRYFDVWGQGTMVTVSS VL: EIVMTQSPATLSVSPGERATLSCRASQSISINLHWYQQKPGQAPRLLIYFASQSISGIPARFSGSGSGTEFTLTISSLQSEDFAVYYCQQSNSFPLTFGGGTKVEIKR | binds | binds | – | – | – |
| Antibody 207 (antibody, human IgG1, kappa, V domains shown, also called AW-F2 as IgG) VH: QVQLVQSGAEVKKPGASVKVSCKASGYTFTDYYLHWVRQAPGQGLEWMGWIDPENGDTESAPKFQGRVTMTTDTSTSTAYMELRSLRSDDTAVYYCNANKELRYFDVWGQGTMVTVSS VL: EIVMTQSPATLSVSPGERATLSCRASQSISINLHWYQQKPGQAPRLLIYFASQSISGIPARFSGSGSGTEFTLTISSLQSEDFAVYYCQQSNSFPLTFGGGTKVEIKR | – | – | – | – | Kd [5]: 0.176 nM; koff [5]: 6.5e-05 s⁻¹; kon [5]: 370000 M⁻¹ s⁻¹; Kd [6]: 0.167 nM; koff [6]: 0.00063 s⁻¹; kon [6]: 3.7e+06 M⁻¹ s⁻¹ |
| Antibody 59 (antibody, human IgG1, kappa, V domains shown) VH: EVQLVQSGAEVKKPGATVKISCKASGYTFSDYYLHWVRQAPGKGLEWMGWIDPENGDTEYAPKFQGKVTITADTSTDTGYLELSSLRSEDTAVYYCAANKELRYFDVWGQGTLVTVSS VL: DIQMTQSPSSVSASVGDRVTITCRASQSISINLHWYQQKPGKAPKLLIKFASQSISGVPSRFSGSGSGTDFSLTINSLQPEDFATYYCQQSNSFPLTFGGGTKVEIKR | – | – | binds | binds | – |
| Antibody 81 (antibody, human IgG1, kappa, V domains shown) VH: QVQLVQSGAEVKKPGASVKVSCKVSGYTLTDYYLHWVRQAPGKGLEWMGWIDPENGDTEYAPKFQGRVTMTEDTSTDTAYMELSSLRSEDTAVYYCATNKELRYFDVWGQGTMVTVSS VL: EIVMTQSPATLSVSPGERATLSCRASQSISINLHWYQQKPGQAPRLLIYFASQSISGIPARFSGSGSGTEFTLTISSLQSEDFAVYYCQQSNSFPLTFGGGTKVEIKR | binds | binds | – | – | – |
| Antibody 58 (antibody, human IgG1, kappa, V domains shown) VH: EVQLVQSGAEVKKPGATVKISCKASGYTFSDYYLHWVRQAPEKGLEWMGWIDPENGDTEYAPKFQGRVTITADTSTDTGYLELSSLRSEDTAVYYCAANKELRYFDVWGQGTLVTVSS VL: DIQMTQSPSSVSASVGDRVTITCRASQSISINLHWYQQKPGKAPKLLIKFASQSISGVPSRFSGSGSGTDFSLTINSLQPEDFATYYCQQSNSFPLTFGGGTKVEIKR | – | – | binds | binds | – |
| Antibody 184 (antibody, human IgG1, kappa, V domains shown, also called CP-A6 as IgG) VH: QVQLVQSGAEVKKPGASVKVSCKASGYTFTDYYLHWVRQAPGQGLEWMGWIDPENGDTEHAPKFQGRVTMTTDTSTSTAYMELRSLRSDDTAVYYCNANKELRYFDVWGQGTMVTVSS VL: EIVMTQSPATLSVSPGERATLSCRASQSISINLHWYQQKPGQAPRLLIYFASQSISGIPARFSGSGSGTEFTLTISSLQSEDFAVYYCQQSNSFPLTFGGGTKVEIKR | – | – | – | – | Kd [5]: 0.104 nM; koff [5]: 4.2e-05 s⁻¹; kon [5]: 410000 M⁻¹ s⁻¹; Kd [6]: 0.127 nM; koff [6]: 0.00054 s⁻¹; kon [6]: 4.2e+06 M⁻¹ s⁻¹ |
| Antibody 56 (antibody, human IgG1, kappa, V domains shown) VH: EVQLVQSGAEVKKPGATVKISCKASGYTFSDYYLHWVRQAPGKGLEWMGWIDPENGDTEYAPKFQGRVTITADTSTDTGYLELSSLRSEDTAVYYCAANKELRYFDVWGQGTLVTVSS VL: DIQMTQSPSSVSASVGDRVTITCRASQSISINLHWYQQKPGKAPKLLIKFASQSISGVPSRFSGSGSGTDFSLTINSLQPEDFATYYCQQSNSFPLTFGGGTKVEIKR | – | – | binds | binds | – |

Continued, in another order:

| binding result [1] | binding result [2] | binding result [3] | binding result [4] | Binder | other results |
| --- | --- | --- | --- | --- | --- |
| binds | binds | – | – | Antibody 76 (antibody, human IgG1, kappa, V domains shown) VH: EVQLVQSGAEVKKPGATVKISCKVSGYTFTDYYLHWVQQAPGKGLEWMGWIDPENGDTEYAPKFQGRVTITADTSTDTAYMELSSLRSEDTAVYYCNANKELRYFDVWGQGTMVTVSS VL: EIVLTQSPATLSLSPGERATLSCRASQSISINLHWYQQKPGQAPRLLIYFASQSISGIPARFSGSGSGTDFTLTISSLEPEDFAVYYCQQSNSFPLTFGGGTKVEIKR | – |
| – | – | binds | binds | Antibody 57 (antibody, human IgG1, kappa, V domains shown) VH: EVQLVQSGAEVKKPGATVKISCKASGYTFSDYYLHWVRQRPGKGLEWMGWIDPENGDTEYAPKFQGRVTITADTSTDTGYLELSSLRSEDTAVYYCAANKELRYFDVWGQGTLVTVSS VL: DIQMTQSPSSVSASVGDRVTITCRASQSISINLHWYQQKPGKAPKLLIKFASQSISGVPSRFSGSGSGTDFSLTINSLQPEDFATYYCQQSNSFPLTFGGGTKVEIKR | – |
| – | – | binds | binds | Antibody 54 (antibody, human IgG1, kappa, V domains shown) VH: EVQLVQSGAEVKKPGATVKISCKASGYTFSDYYLHWVRQAPGKGLEWMGWIDPENGDTEYAPKFQGKVTITADTSTDTGYLELSSLRSEDTAVYYCAANKELRYFDVWGQGTLVTVSS VL: DIQMTQSPSSVSASVGDRVTITCRASQSISINLHWYQQKPGKAPKLLIYFASQSISGVPSRFSGSGSGTDFSLTINSLQPEDFATYYCQQSNSFPLTFGGGTKVEIKR | – |
| – | – | binds | binds | Antibody 52 (antibody, human IgG1, kappa, V domains shown) VH: EVQLVQSGAEVKKPGATVKISCKASGYTFSDYYLHWVRQRPGKGLEWMGWIDPENGDTEYAPKFQGRVTITADTSTDTGYLELSSLRSEDTAVYYCAANKELRYFDVWGQGTLVTVSS VL: DIQMTQSPSSVSASVGDRVTITCRASQSISINLHWYQQKPGKAPKLLIYFASQSISGVPSRFSGSGSGTDFSLTINSLQPEDFATYYCQQSNSFPLTFGGGTKVEIKR | – |
| – | – | binds | binds | Antibody 55 (antibody, human IgG1, kappa, V domains shown) VH: EVQLVQSGAEVKKPGATVKISCKASGYTFSDYYLHWVRQRPEKGLEWMGWIDPENGDTEYAPKFQGKVTITADTSTDTGYLELSSLRSEDTAVYYCAANKELRYFDVWGQGTLVTVSS VL: DIQMTQSPSSVSASVGDRVTITCRASQSISINLHWYQQKPGKAPKLLIYFASQSISGVPSRFSGSGSGTDFSLTINSLQPEDFATYYCQQSNSFPLTFGGGTKVEIKR | – |
